Measurements as given in PMC7081424 (ACS Omega, 2020).
Square brackets hold non-standard residues; d marks the D form. Primed or numbered codes have the meaning given here. FITC′ = fluorescein isothiocyanate; pS = N[C@@H](COP(=O)(O)O)C(=O)O; βAla = NCCC(=O)O

T1: W59F and W228F double mutation of 14-3-3ζ (human, UniProt P63104 1-245, W59F | W228F)
T1 sequence (looked up): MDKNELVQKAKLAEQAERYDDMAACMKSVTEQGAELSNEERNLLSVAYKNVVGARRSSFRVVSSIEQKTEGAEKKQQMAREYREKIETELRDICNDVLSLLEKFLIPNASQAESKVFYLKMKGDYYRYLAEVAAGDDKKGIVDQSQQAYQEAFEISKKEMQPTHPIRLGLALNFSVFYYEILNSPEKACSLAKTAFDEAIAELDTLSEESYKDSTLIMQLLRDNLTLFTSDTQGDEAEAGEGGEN

B1: 14-3-3σ with truncated C-terminus ΔC232-248 (domain or fragment, human, UniProt P31947 1-231, looked up)
chain: MERASLIQKAKLAEQAERYEDMAAFMKGAVEKGEELSCEERNLLSVAYKNVVGGQRAAWRVLSSIEQKSNEEGSEEKGPEVREYREKVETELQGVCDTVLGLLDSHLIKEAGDAESRVFYLKMKGDYYRYLAEVATGDDKKRIIDSARSAYQEAMDISKKEMPPTNPIRLGLALNFSVFHYEIANSPEEAISLAKTTFDEAMADLHTLSEDSYKDSTLIMQLLRDNLTLWT

What was measured:
[1] = biological target: FITC-labeled IκBαpS63 peptide (phosphorylated 14-3-3 binding motif of IκBα) (human) (UniProt P25963); experiment: fluorescence polarisation
[2] = biological target: T1, W59F and W228F double mutation of …; experiment: fluorescence polarisation
[3] = biological target: B1; experiment: crystal structure
crystal structure = biological target: the molecule itself; experiment: crystal structure

14-3-3ζ (from UniProt P63104 1-245) (natural protein)
Kd [1]: 380 µM

{FITC′-βAla}-QEVPRG[pS]EPWKQQ-NH2 (peptide, UniProt P25963 57-69, looked up) [FITC-labeled IκBαpS63 peptide (phosphorylated 14-3-3 binding motif of IκBα)]
Kd [2]: ~415 µM

Ac-QEVPRG[pS]EPWKQQ-NH2 (peptide, UniProt P25963 57-69, looked up) [unlabeled (N-terminally acetylated) IκBαpS63 peptide]
binding result [3]: binds

B1
binding result (crystal structure): binds
